Results reported in US10800847.

What was measured:
[1] = target: Albumin (negative control beads) (human or bovine); assay: Luminex, regular beads (#7), 1:8
HLA-B*8201 (B82) (human) [2] = assay: Luminex, regular beads (#7), 1:8
[3] = target: HLA-Cw*0102 (Cw1) (human); assay: Luminex, regular beads (#7), 1:8
[4] = target: HLA-Cw*0202 (Cw2) (human); assay: Luminex, regular beads (#7), 1:8
[5] = target: HLA-Cw*0302 (Cw10) (human); assay: Luminex, regular beads (#7), 1:8
[6] = target: HLA-Cw*0303 (Cw9) (human); assay: Luminex, regular beads (#7), 1:8
[7] = target: HLA-Cw*0304 (Cw10) (human); assay: Luminex, regular beads (#7), 1:8
[8] = target: HLA-Cw*0401 (Cw4) (human); assay: Luminex, regular beads (#7), 1:8
[9] = target: HLA-Cw*0501 (Cw5) (human); assay: Luminex, regular beads (#7), 1:8
[10] = target: HLA-Cw*0602 (Cw6) (human); assay: Luminex, regular beads (#7), 1:8
[11] = target: HLA-Cw*0702 (Cw7) (human); assay: Luminex, regular beads (#7), 1:8
[12] = target: HLA-Cw*1203 (Cw12) (human); assay: Luminex, regular beads (#7), 1:8
[13] = target: HLA-Cw*1402 (Cw14) (human); assay: Luminex, regular beads (#7), 1:8
[14] = target: HLA-Cw*1502 (Cw15) (human); assay: Luminex, regular beads (#7), 1:8
[15] = target: HLA-Cw*1601 (Cw16) (human); assay: Luminex, regular beads (#7), 1:8
[16] = target: HLA-Cw*1701 (Cw17) (human); assay: Luminex, regular beads (#7), 1:8
[17] = target: HLA-Cw*1802 (Cw18) (human); assay: Luminex, regular beads (#7), 1:8
[18] = target: Albumin (negative control beads) (human or bovine); assay: Luminex, iBead vs regular bead MFI, 1:8
HLA-B*8201 (B82) (human) [19] = assay: Luminex, iBead vs regular bead MFI, 1:8
[20] = target: HLA-Cw*0102 (Cw1) (human); assay: Luminex, iBead vs regular bead MFI, 1:8
[21] = target: HLA-Cw*0202 (Cw2) (human); assay: Luminex, iBead vs regular bead MFI, 1:8
[22] = target: HLA-Cw*0302 (Cw10) (human); assay: Luminex, iBead vs regular bead MFI, 1:8
[23] = target: HLA-Cw*0303 (Cw9) (human); assay: Luminex, iBead vs regular bead MFI, 1:8
[24] = target: HLA-Cw*0304 (Cw10) (human); assay: Luminex, iBead vs regular bead MFI, 1:8
[25] = target: HLA-Cw*0401 (Cw4) (human); assay: Luminex, iBead vs regular bead MFI, 1:8
[26] = target: HLA-Cw*0501 (Cw5) (human); assay: Luminex, iBead vs regular bead MFI, 1:8
[27] = target: HLA-Cw*0602 (Cw6) (human); assay: Luminex, iBead vs regular bead MFI, 1:8
[28] = target: HLA-Cw*0702 (Cw7) (human); assay: Luminex, iBead vs regular bead MFI, 1:8
[29] = target: HLA-Cw*0801 (Cw8) (human); assay: Luminex, iBead vs regular bead MFI, 1:8
[30] = target: HLA-Cw*1203 (Cw12) (human); assay: Luminex, iBead vs regular bead MFI, 1:8
[31] = target: HLA-Cw*1502 (Cw15) (human); assay: Luminex, iBead vs regular bead MFI, 1:8
[32] = target: HLA-Cw*1601 (Cw16) (human); assay: Luminex, iBead vs regular bead MFI, 1:8
[33] = target: HLA-Cw*1701 (Cw17) (human); assay: Luminex, iBead vs regular bead MFI, 1:8
[34] = target: HLA-Cw*1802 (Cw18) (human); assay: Luminex, iBead vs regular bead MFI, 1:8
HLA-B*0702 (B7) (human) = assay: Luminex regular beads (#7), IVIg diluted 1:8
HLA-B*0801 (B8) (human) = assay: Luminex regular beads (#7), IVIg diluted 1:8
HLA-B*1301 (B13) (human) = assay: Luminex regular beads (#7), IVIg diluted 1:8
HLA-B*1302 (B13) (human) = assay: Luminex regular beads (#7), IVIg diluted 1:8
HLA-B*1401 (B64) (human) = assay: Luminex regular beads (#7), IVIg diluted 1:8
HLA-B*1402 (B65) (human) = assay: Luminex regular beads (#7), IVIg diluted 1:8
HLA-B*1502 (B75) (human) = assay: Luminex regular beads (#7), IVIg diluted 1:8
HLA-B*1503 (B72) (human) = assay: Luminex regular beads (#7), IVIg diluted 1:8
HLA-B*1510 (B71) (human) = assay: Luminex regular beads (#7), IVIg diluted 1:8
HLA-B*1511 (B75) (human) = assay: Luminex regular beads (#7), IVIg diluted 1:8
HLA-B*1513 (B77) (human) = assay: Luminex regular beads (#7), IVIg diluted 1:8
HLA-B*1516 (B63) (human) = assay: Luminex regular beads (#7), IVIg diluted 1:8
HLA-B*1801 (B18) (human) = assay: Luminex regular beads (#7), IVIg diluted 1:8
[35] = target: HLA-Cw*1402 (Cw14) (human); assay: Luminex, iBead vs regular bead MFI, 1:8
HLA-B*1512 (B76) (human) = assay: Luminex regular beads (#7), IVIg diluted 1:8

## IVIg Gamunex-C Lot NKLK1 (antibody)
[1]
  MFI: 10300 MFI
HLA-B*8201 (B82) (human) [2]
  MFI: 4780 MFI
[3]
  MFI: 4310 MFI
[4]
  MFI: 6810 MFI
[5]
  MFI: 4130 MFI
[6]
  MFI: 3020 MFI
[7]
  MFI: 4430 MFI
[8]
  MFI: 6480 MFI
[9]
  MFI: 5980 MFI
[10]
  MFI: 10600 MFI
[11]
  MFI: 10500 MFI
[12]
  MFI: 5610 MFI
[13]
  MFI: 6160 MFI
[14]
  MFI: 3690 MFI
[15]
  MFI: 6850 MFI
[16]
  MFI: 5640 MFI
[17]
  MFI: 7160 MFI
[18]
  Difference %: -24%
HLA-B*8201 (B82) (human) [19]
  Difference %: -104%
[20]
  Difference %: -75%
[21]
  Difference %: -59%
[22]
  Difference %: -57%
[23]
  Difference %: -45%
[24]
  Difference %: -59%
[25]
  Difference %: -71%
[26]
  Difference %: -66%
[27]
  Difference %: -80%
[28]
  Difference %: -77%
[29]
  Difference %: -90%
[30]
  Difference %: -65%
[31]
  Difference %: -68%
[32]
  Difference %: -77%
[33]
  Difference %: -42%
[34]
  Difference %: -79%
HLA-B*0702 (B7) (human)
  MFI: 837 MFI
HLA-B*0801 (B8) (human)
  MFI: 1760 MFI
HLA-B*1301 (B13) (human)
  MFI: 3520 MFI
HLA-B*1302 (B13) (human)
  MFI: 2530 MFI
HLA-B*1401 (B64) (human)
  MFI: 2280 MFI
HLA-B*1402 (B65) (human)
  MFI: 1440 MFI
HLA-B*1502 (B75) (human)
  MFI: 1540 MFI
HLA-B*1503 (B72) (human)
  MFI: 2300 MFI
HLA-B*1510 (B71) (human)
  MFI: 1620 MFI
HLA-B*1511 (B75) (human)
  MFI: 3820 MFI
HLA-B*1513 (B77) (human)
  MFI: 3210 MFI
HLA-B*1516 (B63) (human)
  MFI: 3130 MFI
HLA-B*1801 (B18) (human)
  MFI: 567 MFI

## IVIg Gamunex-C Lot NKLG1 (antibody)
[1]
  MFI: 10800 MFI
HLA-B*8201 (B82) (human) [2]
  MFI: 6060 MFI
[6]
  MFI: 4260 MFI
[8]
  MFI: 7530 MFI
[9]
  MFI: 7550 MFI
[10]
  MFI: 12000 MFI
[11]
  MFI: 11800 MFI
[12]
  MFI: 7100 MFI
[13]
  MFI: 7240 MFI
[15]
  MFI: 8460 MFI
[16]
  MFI: 6560 MFI
[17]
  MFI: 8430 MFI
HLA-B*8201 (B82) (human) [19]
  Difference %: -55%
[20]
  Difference %: -2%
[21]
  Difference %: -32%
[22]
  Difference %: -2%
[23]
  Difference %: 1%
[24]
  Difference %: -28%
[25]
  Difference %: -51%
[26]
  Difference %: -47%
[27]
  Difference %: -65%
[28]
  Difference %: -54%
[29]
  Difference %: -40%
[30]
  Difference %: -32%
[35]
  Difference %: -45%
[32]
  Difference %: -52%
[33]
  Difference %: -6%
[34]
  Difference %: -58%
HLA-B*0702 (B7) (human)
  MFI: 1540 MFI
HLA-B*1302 (B13) (human)
  MFI: 3100 MFI
HLA-B*1402 (B65) (human)
  MFI: 2250 MFI
HLA-B*1502 (B75) (human)
  MFI: 1520 MFI
HLA-B*1503 (B72) (human)
  MFI: 2380 MFI
HLA-B*1510 (B71) (human)
  MFI: 1430 MFI
HLA-B*1511 (B75) (human)
  MFI: 4060 MFI
HLA-B*1512 (B76) (human)
  MFI: 816 MFI
HLA-B*1513 (B77) (human)
  MFI: 4270 MFI
HLA-B*1516 (B63) (human)
  MFI: 3760 MFI

## IVIg GamaSTAN S/D (Talecris Biotherapeutics, USA) (antibody)
[1]
  MFI: 3790 MFI
HLA-B*8201 (B82) (human) [2]
  MFI: 3860 MFI
[3]
  MFI: 4540 MFI
[4]
  MFI: 7180 MFI
[5]
  MFI: 4010 MFI
[6]
  MFI: 2860 MFI
[7]
  MFI: 3710 MFI
[8]
  MFI: 6290 MFI
[9]
  MFI: 6970 MFI
[10]
  MFI: 9170 MFI
[11]
  MFI: 7620 MFI
[13]
  MFI: 4270 MFI
[14]
  MFI: 6170 MFI
[16]
  MFI: 7860 MFI
[17]
  MFI: 7980 MFI
[18]
  Difference %: 33%
HLA-B*8201 (B82) (human) [19]
  Difference %: 10%
[20]
  Difference %: -38%
[21]
  Difference %: 13%
[23]
  Difference %: -9%
[24]
  Difference %: -26%
[25]
  Difference %: -20%
[26]
  Difference %: -9%
[28]
  Difference %: -54%
[29]
  Difference %: -32%
[30]
  Difference %: -54%
[35]
  Difference %: -57%
[31]
  Difference %: 24%
[32]
  Difference %: -45%
[33]
  Difference %: 22%
[34]
  Difference %: -2%
HLA-B*0702 (B7) (human)
  MFI: 2220 MFI
HLA-B*0801 (B8) (human)
  MFI: 884 MFI
HLA-B*1301 (B13) (human)
  MFI: 2240 MFI
HLA-B*1302 (B13) (human)
  MFI: 2220 MFI
HLA-B*1401 (B64) (human)
  MFI: 1750 MFI
HLA-B*1402 (B65) (human)
  MFI: 670 MFI
HLA-B*1502 (B75) (human)
  MFI: 526 MFI
HLA-B*1503 (B72) (human)
  MFI: 689 MFI
HLA-B*1510 (B71) (human)
  MFI: 857 MFI
HLA-B*1511 (B75) (human)
  MFI: 2820 MFI
HLA-B*1512 (B76) (human)
  MFI: 2660 MFI
HLA-B*1513 (B77) (human)
  MFI: 1240 MFI
HLA-B*1516 (B63) (human)
  MFI: 3540 MFI
HLA-B*1801 (B18) (human)
  MFI: 0 MFI
